In this experiment the target is biotin-conjugated Aβ_(1-40). Put plainly: ELISA. (An ELISA detects its analyte on a solid surface through an enzyme-linked reagent.)

Among the data in doi:10.1101/2025.06.26.661714 are EC50 values, retold here.

In general, EC50 refers to the concentration at which the effect is half-maximal. A high value points to weaker potency.

B1: solanezumab-Im7 wild-type (solanezumab Fab conjugated to Immunity protein 7) (Fab, V domains shown)
VH: EVQLVESGGGLVQPGGSLRLSCAASGFTFSRYSMSWVRQAPGKGLELVAQINSVGSSTYYPDTVKGRFTISRDNAKNTLYLQMNSLRAEDTAVYYCASGDYWGQGTLVTVSS
VL: DVVMTQSPLSLPVTLGQPASISCRSSQSLIYSDGNAYLHWFLQKPGQSPRLLIYKVSNRFSGVPDRFSGSGSGTDFTLKISRVEAEDVGVYYCSQSTHVPWTFGQGTKVEIK
On to B1, for which the half-maximal effective concentration (EC50) was determined as 3.5 nM.
